According to the Immune Epitope Database (IEDB):

Molecular target: HLA-A*24:02
Experiment: IEDB peptide-MHC binding, purified MHC/competitive/radioactivity; filed as Kd, often an IC50 or EC50 that approximates it; ≥ and ≤ were set here for values at or beyond the usual limits of such assays
Details: source organism: Homo sapiens

**Q.** SYVKVLEYVI was tested. Which Kd did it give?
**A.** Its Kd is 333 nM.

**Q.** For NYKHCFPEI, which Kd is on record?
**A.** Its Kd is 2.5 nM.

**Q.** IMPKTGFLII was tested. Which Kd did it give?
**A.** The Kd was 34.3 nM.

**Q.** Which Kd does the source give for IMPKTGFLI here?
**A.** The Kd was 3.8 nM.

Molecular target: HLA-A*03:01
Experiment: as above
Details: source organism: Homo sapiens

**Q.** How did the Kd turn out when ALAETSYVK was run?
**A.** Its Kd is 35.5 nM.

**Q.** How did the Kd turn out when LIIVLVMIA was run?
**A.** Its Kd is at least 5000 nM.

**Q.** With MSLEQRSLH as the sequence, how does the Kd read?
**A.** Its Kd is 3550 nM.

**Q.** For SLFRAVITKK, which Kd is on record?
**A.** Its Kd is 9.2 nM.

**Q.** DLVGFLLLKY was tested. Which Kd did it give?
**A.** The Kd was 1590 nM.

**Q.** For LVGFLLLKY, which Kd is on record?
**A.** The Kd was 196 nM.

**Q.** With LFRAVITKK as the sequence, how does the Kd read?
**A.** The Kd was 1000 nM.

**Q.** ADLVGFLLLK was tested. Which Kd did it give?
**A.** Its Kd is 31.4 nM.

**Q.** With YVKVLEYVIK as the sequence, how does the Kd read?
**A.** Its Kd is 3790 nM.

**Q.** MLESVIKNYK was tested. Which Kd did it give?
**A.** The Kd was 78.6 nM.

**Q.** LVGFLLLKYR was tested. Which Kd did it give?
**A.** The Kd was 3240 nM.

**Q.** How did the Kd turn out when VGFLLLKYR was run?
**A.** Its Kd is 2500 nM.

**Q.** Which Kd does the source give for RVRFFFPSLR here?
**A.** The Kd was 25.6 nM.

**Q.** Which Kd does the source give for SVMEVYDGR here?
**A.** The Kd was 1180 nM.

**Q.** With FLIIVLVMIA as the sequence, how does the Kd read?
**A.** The Kd was 1180 nM.

**Q.** For RALAETSYVK, which Kd is on record?
**A.** The Kd was 61.1 nM.

Molecular target: HLA-A*02:01
Experiment: as above
Details: source organism: Homo sapiens

**Q.** With VMIAMEGGHA as the sequence, how does the Kd read?
**A.** Its Kd is 139 nM.

**Q.** With FLWGPRALA as the sequence, how does the Kd read?
**A.** Its Kd is 119 nM.

**Q.** With KVADLVGFLL as the sequence, how does the Kd read?
**A.** Its Kd is 89.3 nM.

**Q.** With LVLGTLEEV as the sequence, how does the Kd read?
**A.** Its Kd is 156 nM.

**Q.** Which Kd does the source give for ALREEEEGV here?
**A.** Its Kd is 238 nM.

**Q.** Which Kd does the source give for YVIKVSARV here?
**A.** The Kd was 357 nM.

**Q.** For VADLVGFLL, which Kd is on record?
**A.** The Kd was 2500 nM.

**Q.** How did the Kd turn out when YVLVTCLGL was run?
**A.** The Kd was 2170 nM.

**Q.** SLHCKPEEA was tested. Which Kd did it give?
**A.** Its Kd is 385 nM.

**Q.** With IMPKTGFLII as the sequence, how does the Kd read?
**A.** Its Kd is 1430 nM.

**Q.** SLQLVFGIDV was tested. Which Kd did it give?
**A.** Its Kd is 2500 nM.

**Q.** With KTGFLIIVLV as the sequence, how does the Kd read?
**A.** The Kd was 4170 nM.

**Q.** For ALGLVCVQA, which Kd is on record?
**A.** Its Kd is 333 nM.

**Q.** GLVCVQAAT was tested. Which Kd did it give?
**A.** Its Kd is 2170 nM.

Molecular target: HLA-A*11:01
Experiment: as above
Details: source organism: Homo sapiens

**Q.** LSVMEVYDGR was tested. Which Kd did it give?
**A.** Its Kd is 492 nM.

**Q.** For TTINFTRQR, which Kd is on record?
**A.** Its Kd is 5.9 nM.

**Q.** How did the Kd turn out when LLTQDLVQEK was run?
**A.** The Kd was 36.9 nM.

**Q.** Which Kd does the source give for ALAETSYVK here?
**A.** The Kd was 16.4 nM.

**Q.** For SLFRAVITKK, which Kd is on record?
**A.** The Kd was 6 nM.

**Q.** With LVQEKYLEY as the sequence, how does the Kd read?
**A.** Its Kd is 111 nM.

**Q.** LTQDLVQEK was tested. Which Kd did it give?
**A.** Its Kd is 15.5 nM.

**Q.** For SLEQRSLHCK, which Kd is on record?
**A.** Its Kd is 393 nM.

**Q.** For ADLVGFLLLK, which Kd is on record?
**A.** Its Kd is 20.3 nM.

**Q.** How did the Kd turn out when MLESVIKNYK was run?
**A.** The Kd was 218 nM.

**Q.** Which Kd does the source give for TSCILESLFR here?
**A.** The Kd was 393 nM.

**Q.** How did the Kd turn out when SVMEVYDGR was run?
**A.** Its Kd is 4.5 nM.

**Q.** Which Kd does the source give for RALAETSYVK here?
**A.** Its Kd is 24.6 nM.

Molecular target: HLA-A*01:01
Experiment: as above
Details: source organism: Homo sapiens

**Q.** For MLESVIKNY, which Kd is on record?
**A.** The Kd was 2270 nM.

**Q.** How did the Kd turn out when ETSYVKVLEY was run?
**A.** Its Kd is 44.6 nM.

**Q.** How did the Kd turn out when LTQDLVQEKY was run?
**A.** Its Kd is 20.8 nM.

Molecular target: HLA-A*03:01
Experiment: IEDB peptide-MHC binding, purified MHC/competitive/radioactivity; ≥ and ≤ were set here for values at or beyond the usual limits of such assays
Details: source organism: Homo sapiens

**Q.** With TTINFTRQR as the sequence, how does the IC50 read?
**A.** Its IC50 is 688 nM.

**Q.** Which IC50 does the source give for HSAYGEPRK here?
**A.** Its IC50 is 786 nM.

**Q.** For YVIKVSARVR, which IC50 is on record?
**A.** The IC50 was 579 nM.

**Q.** SLEQRSLHCK was tested. Which IC50 did it give?
**A.** Its IC50 is 733 nM.

**Q.** Which IC50 does the source give for LLGDNQIMP here?
**A.** The IC50 was 550 nM.

Molecular target: HLA-A*02:01
Experiment: as above
Details: source organism: Homo sapiens

**Q.** For KVADLVGFL, which IC50 is on record?
**A.** The IC50 was 575 nM.

**Q.** How did the IC50 turn out when IMPKTGFLI was run?
**A.** Its IC50 is 649 nM.

**Q.** With GLLGDNQIM as the sequence, how does the IC50 read?
**A.** Its IC50 is 980 nM.

**Q.** For RALAETSYV, which IC50 is on record?
**A.** Its IC50 is 500 nM.
